According to publication PMC6406002, “Comparison of the functional properties of trimeric and monomeric CaiT of Escherichia coli” (Scientific Reports, 2019):

Molecular target: the molecule itself
Test: SEC; gel filtration (Superdex 10/300 GL) after incubation at given temperature for 60 min in 100 mM potassium phosphate pH 7.5, 2 mM β-mercaptoethanol, 0.04% DDM

B1: L-carnitine/γ-butyrobetaine antiporter CaiT of Escherichia coli, wild-type (natural protein)
chain: not shown
notes: CaiT, L-carnitine/γ-butyrobetaine antiporter of E. coli; the caiT gene cloned into pET21a; also called CaiT(WT); WT; source: E. coli JW0039 with pET21a/caiT, purified (Ni-NTA), in detergent (DDM)
Q: Does B1 bind?
A: Result: binds
